Test results as given in US20150344540A1, “NOVEL GLP-1 RECEPTOR AGONISTS WITH CHOLESTEROL EFFLUX ACTIVITY” (NOVO NORDISK A/S, priority 2012, published 2015).
Where no end group is shown, it is not given here. [ ]: non-standard residue; d: D form. Aib = CC(C)(N)C(=O)O

B1: [Aib8,Glu23,Val25,Gln30,Glu34,Lys35,Aib36,Lys37]-GLP-1-(7-37)-peptidyl-Glu-Phe-Leu amide (peptide)
peptide: H[Aib]EGTFTSDVSSYLEGEAVKEFIQWLVEK[Aib]KEFL-NH2
modifications: N-terminus assumed
SMILES: CC[C@H](C)[C@H](NC(=O)[C@H](Cc1ccccc1)NC(=O)[C@H](CCC(=O)O)NC(=O)[C@H](CCCCN)NC(=O)[C@@H](NC(=O)[C@H](C)NC(=O)[C@H](CCC(=O)O)NC(=O)CNC(=O)[C@H](CCC(=O)O)NC(=O)[C@H](CC(C)C)NC(=O)[C@H](Cc1ccc(O)cc1)NC(=O)[C@H](CO)NC(=O)[C@H](CO)NC(=O)[C@@H](NC(=O)[C@H](CC(=O)O)NC(=O)[C@H](CO)NC(=O)[C@@H](NC(=O)[C@H](Cc1ccccc1)NC(=O)[C@@H](NC(=O)CNC(=O)[C@H](CCC(=O)O)NC(=O)C(C)(C)NC(=O)[C@@H](N)Cc1c[nH]cn1)[C@@H](C)O)[C@@H](C)O)C(C)C)C(C)C)C(=O)N[C@@H](CCC(N)=O)C(=O)N[C@@H](Cc1c[nH]c2ccccc12)C(=O)N[C@@H](CC(C)C)C(=O)N[C@H](C(=O)N[C@@H](CCC(=O)O)C(=O)N[C@@H](CCCCN)C(=O)NC(C)(C)C(=O)N[C@@H](CCCCN)C(=O)N[C@@H](CCC(=O)O)C(=O)N[C@@H](Cc1ccccc1)C(=O)N[C@@H](CC(C)C)C(N)=O)C(C)C
B2: [Aib8,Glu23,Val25,Lys30,Glu34,Lys35,Leu36,Lys37]-GLP-1-(7-37)-peptidyl-Glu-Phe-Leu amide (peptide)
peptide: H[Aib]EGTFTSDVSSYLEGEAVKEFIKWLVEKLKEFL-NH2
modifications: N-terminus assumed
SMILES: CC[C@H](C)[C@H](NC(=O)[C@H](Cc1ccccc1)NC(=O)[C@H](CCC(=O)O)NC(=O)[C@H](CCCCN)NC(=O)[C@@H](NC(=O)[C@H](C)NC(=O)[C@H](CCC(=O)O)NC(=O)CNC(=O)[C@H](CCC(=O)O)NC(=O)[C@H](CC(C)C)NC(=O)[C@H](Cc1ccc(O)cc1)NC(=O)[C@H](CO)NC(=O)[C@H](CO)NC(=O)[C@@H](NC(=O)[C@H](CC(=O)O)NC(=O)[C@H](CO)NC(=O)[C@@H](NC(=O)[C@H](Cc1ccccc1)NC(=O)[C@@H](NC(=O)CNC(=O)[C@H](CCC(=O)O)NC(=O)C(C)(C)NC(=O)[C@@H](N)Cc1c[nH]cn1)[C@@H](C)O)[C@@H](C)O)C(C)C)C(C)C)C(=O)N[C@@H](CCCCN)C(=O)N[C@@H](Cc1c[nH]c2ccccc12)C(=O)N[C@@H](CC(C)C)C(=O)N[C@H](C(=O)N[C@@H](CCC(=O)O)C(=O)N[C@@H](CCCCN)C(=O)N[C@@H](CC(C)C)C(=O)N[C@@H](CCCCN)C(=O)N[C@@H](CCC(=O)O)C(=O)N[C@@H](Cc1ccccc1)C(=O)N[C@@H](CC(C)C)C(N)=O)C(C)C
B3: [Aib8,Glu23,Val25,Glu34,Lys35,Val36,Lys37]-GLP-1-(7-37)-peptidyl-Glu-Phe-Leu amide (peptide)
peptide: H[Aib]EGTFTSDVSSYLEGEAVKEFIAWLVEKVKEFL-NH2
modifications: N-terminus assumed
SMILES: CC[C@H](C)[C@H](NC(=O)[C@H](Cc1ccccc1)NC(=O)[C@H](CCC(=O)O)NC(=O)[C@H](CCCCN)NC(=O)[C@@H](NC(=O)[C@H](C)NC(=O)[C@H](CCC(=O)O)NC(=O)CNC(=O)[C@H](CCC(=O)O)NC(=O)[C@H](CC(C)C)NC(=O)[C@H](Cc1ccc(O)cc1)NC(=O)[C@H](CO)NC(=O)[C@H](CO)NC(=O)[C@@H](NC(=O)[C@H](CC(=O)O)NC(=O)[C@H](CO)NC(=O)[C@@H](NC(=O)[C@H](Cc1ccccc1)NC(=O)[C@@H](NC(=O)CNC(=O)[C@H](CCC(=O)O)NC(=O)C(C)(C)NC(=O)[C@@H](N)Cc1c[nH]cn1)[C@@H](C)O)[C@@H](C)O)C(C)C)C(C)C)C(=O)N[C@@H](C)C(=O)N[C@@H](Cc1c[nH]c2ccccc12)C(=O)N[C@@H](CC(C)C)C(=O)N[C@H](C(=O)N[C@@H](CCC(=O)O)C(=O)N[C@@H](CCCCN)C(=O)N[C@H](C(=O)N[C@@H](CCCCN)C(=O)N[C@@H](CCC(=O)O)C(=O)N[C@@H](Cc1ccccc1)C(=O)N[C@@H](CC(C)C)C(N)=O)C(C)C)C(C)C
B4: [Aib8,Glu23,Val25,Leu33,Glu34,Lys35,Aib36,Lys37]-GLP-1-(7-37)-peptidyl-Glu-Phe-Leu amide (peptide)
peptide: H[Aib]EGTFTSDVSSYLEGEAVKEFIAWLLEK[Aib]KEFL-NH2
modifications: N-terminus assumed
SMILES: CC[C@H](C)[C@H](NC(=O)[C@H](Cc1ccccc1)NC(=O)[C@H](CCC(=O)O)NC(=O)[C@H](CCCCN)NC(=O)[C@@H](NC(=O)[C@H](C)NC(=O)[C@H](CCC(=O)O)NC(=O)CNC(=O)[C@H](CCC(=O)O)NC(=O)[C@H](CC(C)C)NC(=O)[C@H](Cc1ccc(O)cc1)NC(=O)[C@H](CO)NC(=O)[C@H](CO)NC(=O)[C@@H](NC(=O)[C@H](CC(=O)O)NC(=O)[C@H](CO)NC(=O)[C@@H](NC(=O)[C@H](Cc1ccccc1)NC(=O)[C@@H](NC(=O)CNC(=O)[C@H](CCC(=O)O)NC(=O)C(C)(C)NC(=O)[C@@H](N)Cc1c[nH]cn1)[C@@H](C)O)[C@@H](C)O)C(C)C)C(C)C)C(=O)N[C@@H](C)C(=O)N[C@@H](Cc1c[nH]c2ccccc12)C(=O)N[C@@H](CC(C)C)C(=O)N[C@@H](CC(C)C)C(=O)N[C@@H](CCC(=O)O)C(=O)N[C@@H](CCCCN)C(=O)NC(C)(C)C(=O)N[C@@H](CCCCN)C(=O)N[C@@H](CCC(=O)O)C(=O)N[C@@H](Cc1ccccc1)C(=O)N[C@@H](CC(C)C)C(N)=O
B5: [Aib8,Glu23,Val25,Gln30,His31,Glu34,Lys35,Leu36,Lys37]-GLP-1-(7-37)-peptidyl-Glu-Phe-Leu amide (peptide)
peptide: H[Aib]EGTFTSDVSSYLEGEAVKEFIQHLVEKLKEFL-NH2
modifications: N-terminus assumed
SMILES: CC[C@H](C)[C@H](NC(=O)[C@H](Cc1ccccc1)NC(=O)[C@H](CCC(=O)O)NC(=O)[C@H](CCCCN)NC(=O)[C@@H](NC(=O)[C@H](C)NC(=O)[C@H](CCC(=O)O)NC(=O)CNC(=O)[C@H](CCC(=O)O)NC(=O)[C@H](CC(C)C)NC(=O)[C@H](Cc1ccc(O)cc1)NC(=O)[C@H](CO)NC(=O)[C@H](CO)NC(=O)[C@@H](NC(=O)[C@H](CC(=O)O)NC(=O)[C@H](CO)NC(=O)[C@@H](NC(=O)[C@H](Cc1ccccc1)NC(=O)[C@@H](NC(=O)CNC(=O)[C@H](CCC(=O)O)NC(=O)C(C)(C)NC(=O)[C@@H](N)Cc1c[nH]cn1)[C@@H](C)O)[C@@H](C)O)C(C)C)C(C)C)C(=O)N[C@@H](CCC(N)=O)C(=O)N[C@@H](Cc1c[nH]cn1)C(=O)N[C@@H](CC(C)C)C(=O)N[C@H](C(=O)N[C@@H](CCC(=O)O)C(=O)N[C@@H](CCCCN)C(=O)N[C@@H](CC(C)C)C(=O)N[C@@H](CCCCN)C(=O)N[C@@H](CCC(=O)O)C(=O)N[C@@H](Cc1ccccc1)C(=O)N[C@@H](CC(C)C)C(N)=O)C(C)C
B6: [Aib8,Glu23,Val25,Lys30,Glu34,Lys35,Aib36,Lys37]-GLP-1-(7-37)-peptidyl-Glu-Phe-Leu amide (peptide)
peptide: H[Aib]EGTFTSDVSSYLEGEAVKEFIKWLVEK[Aib]KEFL-NH2
modifications: N-terminus assumed
SMILES: CC[C@H](C)[C@H](NC(=O)[C@H](Cc1ccccc1)NC(=O)[C@H](CCC(=O)O)NC(=O)[C@H](CCCCN)NC(=O)[C@@H](NC(=O)[C@H](C)NC(=O)[C@H](CCC(=O)O)NC(=O)CNC(=O)[C@H](CCC(=O)O)NC(=O)[C@H](CC(C)C)NC(=O)[C@H](Cc1ccc(O)cc1)NC(=O)[C@H](CO)NC(=O)[C@H](CO)NC(=O)[C@@H](NC(=O)[C@H](CC(=O)O)NC(=O)[C@H](CO)NC(=O)[C@@H](NC(=O)[C@H](Cc1ccccc1)NC(=O)[C@@H](NC(=O)CNC(=O)[C@H](CCC(=O)O)NC(=O)C(C)(C)NC(=O)[C@@H](N)Cc1c[nH]cn1)[C@@H](C)O)[C@@H](C)O)C(C)C)C(C)C)C(=O)N[C@@H](CCCCN)C(=O)N[C@@H](Cc1c[nH]c2ccccc12)C(=O)N[C@@H](CC(C)C)C(=O)N[C@H](C(=O)N[C@@H](CCC(=O)O)C(=O)N[C@@H](CCCCN)C(=O)NC(C)(C)C(=O)N[C@@H](CCCCN)C(=O)N[C@@H](CCC(=O)O)C(=O)N[C@@H](Cc1ccccc1)C(=O)N[C@@H](CC(C)C)C(N)=O)C(C)C
B7: [Aib8,Glu23,Val25,Val29,Glu34,Lys35,Aib36,Lys37]-GLP-1-(7-37)-peptidyl-Glu-Phe-Leu amide (peptide)
peptide: H[Aib]EGTFTSDVSSYLEGEAVKEFVAWLVEK[Aib]KEFL-NH2
modifications: N-terminus assumed
SMILES: CC(C)C[C@H](NC(=O)[C@H](Cc1ccccc1)NC(=O)[C@H](CCC(=O)O)NC(=O)[C@H](CCCCN)NC(=O)C(C)(C)NC(=O)[C@H](CCCCN)NC(=O)[C@H](CCC(=O)O)NC(=O)[C@@H](NC(=O)[C@H](CC(C)C)NC(=O)[C@H](Cc1c[nH]c2ccccc12)NC(=O)[C@H](C)NC(=O)[C@@H](NC(=O)[C@H](Cc1ccccc1)NC(=O)[C@H](CCC(=O)O)NC(=O)[C@H](CCCCN)NC(=O)[C@@H](NC(=O)[C@H](C)NC(=O)[C@H](CCC(=O)O)NC(=O)CNC(=O)[C@H](CCC(=O)O)NC(=O)[C@H](CC(C)C)NC(=O)[C@H](Cc1ccc(O)cc1)NC(=O)[C@H](CO)NC(=O)[C@H](CO)NC(=O)[C@@H](NC(=O)[C@H](CC(=O)O)NC(=O)[C@H](CO)NC(=O)[C@@H](NC(=O)[C@H](Cc1ccccc1)NC(=O)[C@@H](NC(=O)CNC(=O)[C@H](CCC(=O)O)NC(=O)C(C)(C)NC(=O)[C@@H](N)Cc1c[nH]cn1)[C@@H](C)O)[C@@H](C)O)C(C)C)C(C)C)C(C)C)C(C)C)C(N)=O
B8: [Aib8,Glu23,Val25,Glu34,Lys35,Aib36,Leu37]-GLP-1-(7-37)-peptidyl-Ser-Phe-Leu amide (peptide)
peptide: H[Aib]EGTFTSDVSSYLEGEAVKEFIAWLVEK[Aib]LSFL-NH2
modifications: N-terminus assumed
SMILES: CC[C@H](C)[C@H](NC(=O)[C@H](Cc1ccccc1)NC(=O)[C@H](CCC(=O)O)NC(=O)[C@H](CCCCN)NC(=O)[C@@H](NC(=O)[C@H](C)NC(=O)[C@H](CCC(=O)O)NC(=O)CNC(=O)[C@H](CCC(=O)O)NC(=O)[C@H](CC(C)C)NC(=O)[C@H](Cc1ccc(O)cc1)NC(=O)[C@H](CO)NC(=O)[C@H](CO)NC(=O)[C@@H](NC(=O)[C@H](CC(=O)O)NC(=O)[C@H](CO)NC(=O)[C@@H](NC(=O)[C@H](Cc1ccccc1)NC(=O)[C@@H](NC(=O)CNC(=O)[C@H](CCC(=O)O)NC(=O)C(C)(C)NC(=O)[C@@H](N)Cc1c[nH]cn1)[C@@H](C)O)[C@@H](C)O)C(C)C)C(C)C)C(=O)N[C@@H](C)C(=O)N[C@@H](Cc1c[nH]c2ccccc12)C(=O)N[C@@H](CC(C)C)C(=O)N[C@H](C(=O)N[C@@H](CCC(=O)O)C(=O)N[C@@H](CCCCN)C(=O)NC(C)(C)C(=O)N[C@@H](CC(C)C)C(=O)N[C@@H](CO)C(=O)N[C@@H](Cc1ccccc1)C(=O)N[C@@H](CC(C)C)C(N)=O)C(C)C

The binders below were run against human GLP-1 receptor (human, UniProt P43220) (assay: cell-based or functional assay).

Point of comparison: B5, “CRE luciferase EC50, 0% HSA” value 77 pM. Against it:
- B1 — within 1.5-fold, 83 pM
- B2 — 6-fold higher, 465 pM
- B3 — 6.2-fold higher, 474 pM
- B4 — 2.6-fold higher, 203 pM
- B6 — within 1.5-fold, 103 pM
- B7 — within 1.5-fold, 111 pM
- B8 — 11-fold higher, 872 pM

Point of comparison: B8, “CRE luciferase EC50, 1% HSA” value 368 pM. Against it:
- B1 — 8.8-fold lower, 42 pM
- B2 — within 1.5-fold, 275 pM
- B3 — within 1.5-fold, 381 pM
- B4 — 4.8-fold lower, 76 pM
- B5 — 15-fold lower, 25 pM
- B6 — 8.6-fold lower, 43 pM
- B7 — 10-fold lower, 36 pM
